# Assay: label from the status in PepcDB records
# 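Further: failed if final PepcDB status was selected cloned or expressed and not failed if soluble or beyond.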
row,Sequence,protein production
1,KKLANADANNDSRVYVAVDGDIGVGYATMKVFMLSNDEYKILSGKYPRQVPVVMLDQIAVDKAYQGKGIGKRLMRKVLEATVLVNELAAAKGLALWAHPRAKDFYESLGFEAIPDATKQVQDVELTLMFIHVETILDALK,failed
2,MLVTKLAPDFKAPAVLGNNEVDEHFELSKNLGKNGAILFFWPKDFTFVCPTEIIAFDKRVKDFQEKGFNVIGVSIDSEQVHFAWKNTPVEKGGIGQVTFPMVADITKSISRDYDVLFEEAIALRGAFLIDKNMKVRHAVINDLPLGRNADEMLRMVDALLHFEEHGEVCPAGWRKGDKGMKATHQGVAEYLKENSIKL,failed
3,MYKIVSDSACDLSKEYLEKHDVTIVPLSVSFDGETYYRDGVDITRDECYQRMVDDPKLFPKTSLPSVESYADVFRSFVEQGFPVVCFTITTLFSGSYNSAINAKSLVLEDYPDANICVIDSKQNTVTQALLIDQFVRMLEDGLSFEQAMSKLDALMASARIFFTVGSLDYLKMGGRIGKVATAATGKLGVKPVIIMKDGDIGLGGIGRNRNKLKNSVLQVAKKYLDENNKDNFIVSVGYGYDKEEGFEFMKEVESTLDVKLDSETNVAIGIVSAVHTGPYPIGLGVIRKYETL,not failed
4,MKKSLCLSFFLTFSNPLQALVIELLEEIKTSPHKGTFKAKVLDSKKPRQVLGVYNISPHKKLTLTITHISTAIVYQPLDEKLSLETTLNPNRPTIPRNTQIVFSSKELKESHPHQMPSLNAPMQKPQNKPHSSQQPSQNFSYPEPKLGSKNSKNSLLQPLAIPSKISPTNETQTPTNDTKPPLKHSSEDQESNLFITPPTEKTLPNNTSNADISENNESNENKDNVEKQAIRDANIKEFACGKWVYDDENLQAYRPSILKRVDEDKQTATDITPCDYSTAENKSGKIITPYTKISVHKTEPLEEPQTFEAKNNFAILQARSSTEKCKRARARKDGTTRQCYLIEEPLKQAWESEYEITTQLVKAIYERPKQDDQVEPTFYETSELAYSSTRKSEITHNELNLNEKFMEFVEVYEGHYLNDIIKESSEYKEWVKNHVRFKEGVCMALEIEEQPRAKSTPLSIENSRVVCVKKGNYLFNEV,failed
5,MKGFIDDANYSVGLLDEGTNLGNVIDNYVYEHTLTGKNAFFVGDLGKIVKKHSQWQTVVAQIKPFYTVKCNSTPAVLEILAALGTGFACSSKNEMALVQELGVSPENIIFTSPCKQVSQIKYAAKVGVNIMTCDNEIELKKIARNHPNAKVLLHIATEDNIGGEDGNMKFGTTLKNCRHLLECAKELDVQIIGVKFHVSSACKEYQVYVHALSDARCVFDMAGEFGFTMNMLDIGGGFTGTEIQLEEVNHVISPLLDIYFPEGSGIQIISEPGSYYVSSAFTLAVNIIAKKVVENDKFSSGVEKNGSDEPAFVYYMNDGVYGSFASKLSEDLNTIPEVHKKYKEDEPLFTSSLWGPSCDELDQIVESCLLPELNVGDWLIFDNMGADSFHEPSAFNDFQRPAIYFMMSFSDWYEMQDAGITSDAMMKNFFFAPSCIQLSQEDSFSTEA,not failed
6,MPMSFSLTQMILISAAYLAVLFGVAWISERGMIPRSIIRHPLTYTLSLGVYASAWAFYGTVGLAYQYGYGFLSSYLGVSGAFLLAPVLLYPILKITRTYQLSSLADLFAFRFRSTWAGALTTIFMLIGVLPLLALQIQAVADSIGILTHEPVQHRVALSFCALITLFTIFFGSRHIATREKHEGLVFAIAFESVIKLIAIGGVGLYALYGVFDGPQQLELWLLQNQTALAALHTPLQEGPWRTLLLVFFASAIVMPHMYHMTFTENLNPRALVSASWGLPLFLLLMSLAVPLILWAGLKLGATTNPEYFTLGIGIAANSPALALLAYVGGLSAASGLIIVTTLALSGMALNHLVLPLYQPPAEGNIYRWLKWTRRALIVAIIMAGYAFYLLLGAEQDLANLGIVAFVATLQFLPGVLSVLYWPTANRRGFIAGLLAGILVWLVTMLLPLIGNLQGFYIPLLNMIYVLDDTSWHMAAIASLAANVLMFTLISLFTNASTEEASAAEACAVDNVRRPQRRELHAASPQEFATQLAKPLGAKAAQKEVEQALRDLYLPFDERRPYALRRLRDRIEANLSGLMGPSVAQDMVETFLPYKAGGENYVTEDIHFIESRLEDYHSRLTGLAAELDALRRYHRQTLQELPMGVCSLAKDQEILMWNKAMEELTGIPAQHVVGSRLSTITNPWKDLLQGFINLPDEHLHKQHLALDGQTRWLNLHKAAIDEPLAPGNSGLVLLVEDLTETQTLEDKLVHSERLASIGRLAAGVAHEIGNPITGIACLAQNLREEREEDGELTEISEQILEQTKRISRIVQSLMSFAHAGSHQHNDEAVCLAEVAQDAIGLLALNRRNFEVQFFNLCDPDHWVDGDPQRLAQVLINLLSNARDASPPGSAVRVKSEAFEHTVDLIVEDEGSGIPKNIMDRLFEPFFTTKDPGEGTGLGLALVYSIVEEHYGQITIDSPADPQSQRGTRIRVTLPRHVEATSAVN,failed
7,MYVTRRLSEYQKKPSELKLLPPEGPNSGIMVIQDEESQATCCFGSCYEGRLKGLPFPQNVKLNAAYTSGGGEHQTTHLTPVVFIPVLDQPLSSNLYYVLQRRGKHTGKASASATEEERVSSCFCFSYIPDAKPQEADPYDIYQQFEIHQRRSSSRYYSATSVASDGVPPNYLKRKDWWVSYSTSHDFGLRDDAKGINTKLRLDSELTSLGKSIEIGKWYVPFIFVMEGDVKDQMNKSTFYSVTLQQRWEEVFFCENIGNEHFEVVVDVDVETESVKLEGQETNLREDSGDGVVWFSVLRDEKDDKKIGLGSVVVERMKWEEERFGWLNEAGERSNIKRSERFEGGSSHWKSYRCYVLIESFELTRMDGSLVLTYEFRHVDKLKSKWD,failed
8,MGHHHHHHSHMQFFLPDATATHQFGVLLGQRLLASSTLLLEGDLGSGKTTLTQGIAQGLGIPDVVASPTFTLVCEYSEGRLPLYHFDLYRLEAPDVARLLPELYWEGVEFEPGLVVIEWPERLPYRPAAYWSLVLTPSLELEGRQLVLTPVNQDPTTVANLEVQLAAQFRARPATAES,not failed
9,LKRDFIILGNGPRLQNSTYQCKHCDSKLQSTAELTSHLNIHNEEFQKRAKRQERRKQLLSKQKYADGAFADFKQE,not failed
10,EIAVPTLFVHGYSGTANSFKGMINRLADDGIVTESLVMTVAADGSVSTTGSYDKFSHNPTIQVIFEDNKSSMVNQTQWIQNVMKELKNNYHIEKVDAVGHSMGGVSLTSYIEKVGSDKAYPVLENLVLIGAPLNGLVVGDNGVTAYDLTDEGPKQSSDRYSEFMKNKQKIPTNLQVLNIAGDMLDGTKSDGSVSVASALSGKFIFEGQAKSYEEKIFTGKKAAHSKLHENTDVDAKVANFLWGTEKVD,failed
11,MTKSHSQDQESTLLRLEHAQAILQRDAALAHIEHMRRSRSWRLTRPLRMLMQLLRHGVINDESEYPTHLPSLVQPLPASIPLEPDIVEDSTSGSAAQHFDLLCFANIDWSARFQRPQQLMTQFAIQGYRVFYIILSPLPAAERPYTAHPVAPGVFEITLRGHARQDYYATCITEGNLRANAEALQALVSDYRIKTAVSVVHLPYWTRLALHLRKAYGWPVQYDCMDEWQDFPNIGQPLLAQEQVLVEQADLVTVTASVLYDKWASTSRRCQLVRNGVDFDFFARCCTPNTLLEELQGPIIGFYGALAEWVDFELVAAIARQRPEWNLVLIGDVFVRDLAGLDRLPNVHLLGRKPYSQMPQYLYHFDVCIIPFRLYNVTHAVDPVKFYEFISAGKPVVAVPLLEMQIYEPYLYFADGPSAFVTQIERALGETDLQRWDQRLALARENDWRQRFEDTRDALVELFPKVSVIIVTYNNVQLTRGCIDSLLRNCAYPNLQLIIVDNASQDSTRNYLRYLARSEPNVSIVLNEQNLGFAAANNQGLRLAQGHYLVLLNNDTVVPKGWLAPLLRHLDDPEVGLVGPTTNAVGNEARVSIDYQDLDDMEDFADRRASQYRGRCFDIPMLAMFCVAMRREVLDQVGWLDEAFGIGMFEDDDYSRRVQAAGLRTVCAEDSYIHHYGQASFKALIASGEYQRLWDKNQAYFESKWGPWQPHRQARRRANADATKMKLTD,failed
12,MQKINIDRHATAQINMLANKLMLKSSTAYTQKFGIGMTEWRIISVLSSASDCSVQKISDILGLDKAAVSRTVKKLEEKKYIEVNGHSEDKRTYAINLTEMGQELYEVASDFAIEREKQLLEEFEEAEKDQLFILLKKLRNKVDQM,not failed
13,HKPWRAEYAKSSRSSCKTCKSVINKENFRLGKLVQSTHFDGIMPMWNHASCILKKTKQIKSVDDVEGIESLRWEDQQKIRKYVESGAGSNTSTSTGTSTSS,not failed
14,MTPDSSVYKALLESTKAIPWKINWQTMAFEYIGPQIEALLGWPQGSWKSVEDWATRMHPEDQEWVVNFCVKQSECGVDHEADYRALHRDGHYVWIRDVVHVVRDDSGEVEALIGFMFDISLEHHHHHH,not failed
15,MRAASVPFSQRTTCKGRDGFDQFQIAFASAAERDHSCDQGRRQPGGRPPIQVAAVSGFMHRQGKTPMPTLTINGRSLSVDAANDTPLLWAIREQLQMTGTKFGCGAGLCGACTVHVNGEAVRSCQTMVGDVAGKKITTIEGLSAKGDHPLQKAWIAEQVPQCGYCQSGQIMQAASLLAKNANPTKEEVVAHMDGNLCRCMTYSRIQKAIMRAATEMRTASASGNERRPT,failed
16,MAAQALLSVGERRLLRGVDEQRALGAALARALAPGSVLFLEGELGAGKTTLTQGLLAALGFDGHVTSPTYALMQLYPASAGQVLHVDAYRVRDVAELYEMDLDELIAGSRLSVIEWGEGLYADYPQAPIYLFEHVEGDPETRRVTRRRLEHHHHHH,failed
17,MTVVWINGAFGAGKTTTARELIELIPNSTLFDPEVVGGALAHLLPPKRLAEVGDFQDLPIWRRLVIDTAAALLADLGGTLVVPMTLLRQEYRDEIFGGLAARRIEVRHILLAPAETILRERIASREVPRDLPDGELRTRQWSYDHIEPYRAALASWLTADAHPVDTGALTPYEAAARVAEAVGSGAVPACEIVQTPEPTGETVAAGVLLFDERDRVLLVDPTYKPGWEFPGGVVEPGEAPARAGMREVAEETGLSLRDVPALLVVDWEPPAPPAYGGLRLLFDGGRLDAADAGRVLLPGPELRDWRFATEDEAAGLLPPVRYERLRWALRARERGAAHYLEAGTPVGLEHHHHHH,failed
18,MLHSTAGWKNMDFKRFSLLIATRTILAMLTLIFLTQAIMSDGYHATVLLLSAVLLIQFFEITRFISKTNAELVRFFEAVRHADFSQRFELKSLGTGFDELGSTFTDILKRIQRVRSNQEAELRHIKAIIEHVPVPLLSIDHNGKITLWNNSVRRLFGTNAVTHIDDMAQFNEDFPKKLQSILAGERTLVHITIDDMEHKLIISATEITTATQQETLLSMQDIQSELALAQLQAWQDLVSVLTHEIMNSITPVASLAKTAVDLVQDVQEKTRTLPAITNEITEELDDVLGAVKTVARRSDGLMQFVTSYRRLTRLPSPNKKTISVATIFDHVTTLAKQNWQKDNIELTASITPQALDIHVDPDMIEQILLNLLLNAEHALITTAGVIEKKNSTPKIALNAFLNVRGHVIIEVADNGKGIENKNMTQIFVPFFTTKKEGSGVGLALTRQVMLAHNGKVAVRNNSQGGATFSLTF,failed
19,PLKEQKVINTANITTNSKLDLAEYENGLMNIAKEQFDTENHVLQLNQYIPEKLVDELVAKVKAPVLTNIIEQDYFGKQNSNELSLSGVMIGLAMSSSVSNEEAMSKGTEVANQLIEAIHKNDKYNKSPITFAIFKQESTSSLKNGTYIASATVQKNDTNIGNWNAIEEKAYSYPSDEFTQAHGEDNTKIDDFAKEMKGFSPGDFIPVNAKVSYKKNQMDTLNMNIVIKYNGKTELMALTQLAAQIMLEQLPKDAKVQLQIKSENKIEAIVIKEKNSDKPFV,not failed
20,MKTVGVVLSGCGVLDGAEIHESVLTMLALDRAGAEVLFFAPDKPQLHVINHITGEIVAEERNVLVESARIARGLITPLSAADPEVLDALIVPGGFGAAKNLCDFAIKGGECSVEPDLYKLIQLMHKSGKPIGLMCISPVMLPKLLGKPIRLTIGNDPDTIDAIEIMGGEHVICPADDVVIDLENKVVTTPAYMLAGSISEAAKGIDKLVTKVLDLTE,failed
